How the values were obtained:
HLA-B*08:01 [1] = assay: IEDB peptide-MHC binding, purified MHC/competitive/fluorescence; filed as Kd, often an IC50 or EC50 that approximates it; ≥ and ≤ were set here for values at or beyond the usual limits of such assays; conditions: source organism: Human immunodeficiency virus 1
HLA-A*26:01 [2] = assay: as above; conditions: source organism: Human immunodeficiency virus 1
HLA-A*02:06 [3] = assay: as above; conditions: source organism: Human immunodeficiency virus 1
HLA-A*02:03 [4] = assay: as above; conditions: source organism: Human immunodeficiency virus 1
HLA-A*26:03 = assay: as above; conditions: source organism: Human immunodeficiency virus 1
HLA-A*03:01 [5] = assay: as above; conditions: source organism: Human immunodeficiency virus 1
HLA-B*08:02 = assay: as above; conditions: source organism: Human immunodeficiency virus 1
HLA-A*31:01 [6] = assay: as above; conditions: source organism: Human immunodeficiency virus 1
HLA-A*11:01 [7] = assay: as above; conditions: source organism: Human immunodeficiency virus 1
HLA-A*69:01 [8] = assay: as above; conditions: source organism: Human immunodeficiency virus 1
HLA-A*30:01 [9] = assay: as above; conditions: source organism: Human immunodeficiency virus 1
HLA-A*02:01 [10] = assay: as above; conditions: source organism: Human immunodeficiency virus 1
HLA-A*68:02 = assay: as above; conditions: source organism: Human immunodeficiency virus 1
HLA-A*02:50 [11] = assay: as above; conditions: source organism: Coxiella burnetii RSA 493
HLA-B*27:05 = assay: IEDB peptide-MHC binding, purified MHC/direct/fluorescence; filed as Kd, often an IC50 or EC50 that approximates it; ≥ and ≤ were set here for values at or beyond the usual limits of such assays
HLA-B*40:01 = assay: as above
HLA-A*02:06 [12] = assay: as above; conditions: source organism: Coxiella burnetii Q321
HLA-B*07:02 = assay: as above
HLA-C*08:02 = assay: as above; conditions: source organism: Coxiella burnetii RSA 493
HLA-A*24:02 = assay: as above; conditions: source organism: Coxiella burnetii
HLA-A*02:03 [13] = assay: as above; conditions: source organism: Coxiella burnetii Q321
HLA-A*01:01 = assay: as above
HLA-A*02:12 = assay: as above; conditions: source organism: Coxiella burnetii Q321
HLA-A*03:01 [14] = assay: as above
HLA-B*58:01 = assay: as above
HLA-B*15:01 = assay: as above
HLA-C*12:03 = assay: as above; conditions: source organism: Coxiella burnetii RSA 493
HLA-A*11:01 [15] = assay: as above
HLA-A*69:01 [16] = assay: as above
HLA-B*44:02 = assay: as above
HLA-A*02:19 = assay: as above; conditions: source organism: Coxiella burnetii Q321
HLA-A*02:01 [17] = assay: as above
HLA-A*02:11 = assay: as above; conditions: source organism: Coxiella burnetii Q321
HLA-B*15:02 = assay: IEDB peptide-MHC binding, purified MHC/competitive/fluorescence; filed as Kd, often an IC50 or EC50 that approximates it; ≥ and ≤ were set here for values at or beyond the usual limits of such assays; conditions: source organism: Bacillus licheniformis
HLA-B*08:01 [18] = assay: IEDB peptide-MHC binding, purified MHC/direct/fluorescence; filed as Kd, often an IC50 or EC50 that approximates it; ≥ and ≤ were set here for values at or beyond the usual limits of such assays; conditions: source organism: Bacillus licheniformis
HLA-A*26:01 [19] = assay: as above; conditions: source organism: Bacillus licheniformis
HLA-A*31:01 [20] = assay: as above; conditions: source organism: Bacillus licheniformis
HLA-B*51:01 = assay: as above; conditions: source organism: Francisella tularensis subsp. tularensis FSC033
HLA-B*18:01 = assay: as above; conditions: source organism: Francisella tularensis subsp. tularensis FSC033
HLA-A*29:02 = assay: as above; conditions: source organism: Francisella tularensis subsp. tularensis FSC033
HLA-A*02:50 [21] = assay: as above; conditions: source organism: Francisella tularensis subsp. tularensis FSC033
HLA-B*57:01 = assay: as above; conditions: source organism: Francisella tularensis subsp. tularensis FSC033
HLA-A*30:01 [22] = assay: as above; conditions: source organism: Francisella tularensis subsp. tularensis FSC033
[23] = source organism: Coxiella burnetii
[24] = source organism: Bacillus licheniformis
[25] = source organism: Francisella tularensis subsp. tularensis FSC033
[26] = source organism: Francisella tularensis subsp. holarctica OSU18

## VLYCVHQRV
HLA-B*08:01 [1]
  Kd: ≥ 20 µM
HLA-A*26:01 [2]
  Kd: ≥ 20 µM
HLA-A*02:06 [3]
  Kd: 0.0005 µM
HLA-A*02:03 [4]
  Kd: 0.0047 µM
HLA-A*26:03
  Kd: ≥ 20 µM
HLA-A*03:01 [5]
  Kd: ≥ 20 µM
HLA-B*08:02
  Kd: ≥ 20 µM
HLA-A*31:01 [6]
  Kd: 11.9 µM
HLA-A*11:01 [7]
  Kd: 10.7 µM
HLA-A*69:01 [8]
  Kd: ≥ 20 µM
HLA-A*30:01 [9]
  Kd: 1.86 µM
HLA-A*02:01 [10]
  Kd: 0.0098 µM
HLA-A*68:02
  Kd: 0.223 µM

## YMHGSIHEV
HLA-A*02:50 [11]
  Kd: ≤ 0.0001 µM
HLA-B*27:05; [23]
  Kd: ≥ 20 µM
HLA-B*40:01; [23]
  Kd: ≥ 20 µM
HLA-A*02:06 [12]
  Kd: 0.002 µM
HLA-B*07:02; [23]
  Kd: ≥ 20 µM
HLA-C*08:02
  Kd: ≥ 20 µM
HLA-A*24:02
  Kd: ≥ 20 µM
HLA-A*02:03 [13]
  Kd: 0.002 µM
HLA-A*01:01; [23]
  Kd: ≥ 20 µM
HLA-A*02:12
  Kd: 0.007 µM
HLA-A*03:01 [14]; [23]
  Kd: ≥ 20 µM
HLA-B*58:01; [23]
  Kd: ≥ 20 µM
HLA-B*15:01; [23]
  Kd: 0.118 µM
HLA-C*12:03
  Kd: 0.026 µM
HLA-A*11:01 [15]; [23]
  Kd: ≥ 20 µM
HLA-A*69:01 [16]; [23]
  Kd: 0.0407 µM
HLA-B*44:02; [23]
  Kd: ≥ 20 µM
HLA-A*02:19
  Kd: 0.007 µM
HLA-A*02:01 [17]; [23]
  Kd: 0.057 µM
HLA-A*02:11
  Kd: 0.002 µM

## VQIPEKKCF
HLA-B*15:02
  Kd: ≥ 20 µM
HLA-B*27:05; [24]
  Kd: ≥ 20 µM
HLA-B*08:01 [18]
  Kd: ≥ 20 µM
HLA-A*26:01 [19]
  Kd: ≥ 20 µM
HLA-B*40:01; [24]
  Kd: ≥ 20 µM
HLA-B*07:02; [24]
  Kd: ≥ 20 µM
HLA-A*01:01; [24]
  Kd: ≥ 20 µM
HLA-A*03:01 [14]; [24]
  Kd: ≥ 20 µM
HLA-B*58:01; [24]
  Kd: ≥ 20 µM
HLA-B*15:01; [24]
  Kd: 0.453 µM
HLA-A*31:01 [20]
  Kd: ≥ 20 µM
HLA-A*11:01 [15]; [24]
  Kd: ≥ 20 µM
HLA-A*69:01 [16]; [24]
  Kd: ≥ 20 µM
HLA-A*02:01 [17]; [24]
  Kd: ≥ 20 µM

## ETLDVFGPI
HLA-B*40:01; [25]
  Kd: ≥ 20 µM
HLA-B*51:01
  Kd: ≥ 20 µM
HLA-B*07:02; [25]
  Kd: ≥ 20 µM
HLA-B*18:01
  Kd: ≥ 20 µM
HLA-A*01:01; [25]
  Kd: ≥ 20 µM
HLA-A*29:02
  Kd: ≥ 20 µM
HLA-B*58:01; [25]
  Kd: ≥ 20 µM
HLA-B*15:01; [25]
  Kd: ≥ 20 µM
HLA-A*02:50 [21]
  Kd: ≥ 20 µM
HLA-A*69:01 [16]; [26]
  Kd: 0.0004 µM
HLA-B*44:02; [25]
  Kd: ≥ 20 µM
HLA-B*57:01
  Kd: ≥ 20 µM
HLA-A*30:01 [22]
  Kd: ≥ 20 µM
HLA-A*02:01 [17]; [26]
  Kd: ≥ 20 µM
